In patent US6429298:

System: Modified p53 (human p53 engineered to contain the HIV-1 protease cleavage site VSFNFPQITL upstream o)

Substance: HIV-1 protease
- SDS-PAGE migration of purified p53 fusion protein after co-expression with HIV-1 protease (cleavage): The mutagenized p53 migrated more quickly than the wild-type protein (as did p53Δ30), but only after coexpression with HIV-1 protease.
